{"source": "patent US20140234868A1", "about": "“USE FOR GLYCOLIPOPROTEIN GINTONIN, ISOLATED AND IDENTIFIED FROM GINSENG, AS A NATURAL MEDICAL-PLANT DERIVED LIGAND” (KONKUK UNIVERSITY INDUSTRIAL COOPERATION CORP., priority 2011, published 2014)", "molecules": {"B1": {"name": "gintonin: ginseng-derived glycolipoprotein; structural protein of ginseng major latex-like protein (MLP151) and ribonuclease-like storage proteins; crude gintonin used in tests (protein)", "chain 1": "MGLTGKLICQTGIKSDGDVFHELFGTRPHHVPNITPANIQGCDLHEGEFGKVGSVVIWNYSIDGNAMIAKEEIVAIDEEDKSVTFKVVEGHLFEEFKSIVFSVHVDTKGEDNLVTWSIDYEKLNESVKDPTSYLDFLLSVTRDIEAHHLPK", "chain 2": "RSDYPWAMFALRLQWPAGFCEVNNACDTKSLLNTFTIHGLYPYNAKGTPALYCDGTAFDVNSVSDFLAEMHLAWPSHETNTEDIQFWEHEWKKHGRCSEALLKQTDYFRTALAFRKAFDIVGLLNQEGIYPNNDLYRPKMIKEAIKKHLNAVPEIDFTKNENSEYVLTDINVCVNQQATRFVDCPTDDATDDYRLKFVRLPSKMKFADPRTNSII"}}, "key": {"[1]": {"system": "mutant NMDA receptor (S1312A)", "assay": "Gintonin-induced activation of mutant NMDA receptor S1312A in oocytes", "assay_type": "cell-based", "experimental": "Two-electrode voltage-clamp recordings were obtained from individual oocytes placed in a small Plexiglas net chamber (5 ml). Electrophysiological experiments were performed using microelectrodes filled with 3 M KCl (resistance of 0.2-0.7 MΩ) and an Oocyte Clamp amplifier (OC-725C; Warner Instrument, Hamden, Conn.). For physiological recordings of NMDA receptor activity, oocytes were first perfused with Mg^2+-free ND96 (mM: 96 NaOH, 2 KOH, 0.3 CaCl2, 5 HEPES pH 7.6 with methanesulfonic acid). Then, the oocytes were clamped at −60 mV holding potential, followed by recoding NMDA currents (induced by administering […]) (Zheng et al., J Neurosci. 17, 8676-8686, 1997; Chang and Kuo, J Neurosci. 28, 1546-1556, 2008).\nThus, it is understood that gintonin stimulates PKC to phosphorylate the NMDA receptor at a specific site (S1308), and thus that gintonin-induced NMDA receptor activation is associated with PKC activity."}, "HUVECs": {"system": "HUVECs", "assay": "Scratch wound healing in HUVEC monolayers", "assay_type": "cell-based, human", "settings": "gintonin 30 μg/ml, 20 hrs", "experimental": "In this Example, an examination was made of the effect of gintonin on wound healing. For use in this examination, HUVECs were cultured in an M199 medium supplemented with heat-inactivated 20% FBS, […] basic fibroblast growth factor, 5 units/ml heparin, and streptomycin and penicillin in a 5% […] incubator.\nHUVECs (2.5×10^5/well) were seeded to 24-well plates, and incubated for 24 hrs, and then for an additional 6 hrs in M199 supplemented with 1% FBS. Single wounds were made in the confluent monolayers by dragging a sterile 200-μl pipette tip across the monolayer to create a cell-free path. Floating cells were washed off twice with M199 supplemented with 1% FBS. The adherent cells were incubated with gintonin (30 μg/ml). Before and after treatment with gintonin, HUVECs in each well were observed and photographed (100×) using an inverted fluorescence microscope (AxioVert200; Carl Zeiss, Germany). Morphological comparison with non-treated cells was made.\nIn the assay for wound healing of gintonin, uncovered wound areas were measured using AxioVision 4 (Carl Zeiss, Germany) (FIG. 26A), and the time process of covering the scratch wound areas was monitored in the presence or absence of gintonin (FIG. 25B). In addition, uncovered scratch areas of gintonin-treated groups were compared with that of the control and expressed as % of that of the control (FIGS. 26C and D)."}, "endogenous CaCC": {"system": "endogenous CaCC", "settings": "Xenopus oocytes; Pyo et al. 2011; cited from earlier work"}, "LPA4 receptor": {"molecular_target": "LPA4 receptor (Homo sapiens, UniProt Q99677)", "sequence (Q99677 whole entry)": "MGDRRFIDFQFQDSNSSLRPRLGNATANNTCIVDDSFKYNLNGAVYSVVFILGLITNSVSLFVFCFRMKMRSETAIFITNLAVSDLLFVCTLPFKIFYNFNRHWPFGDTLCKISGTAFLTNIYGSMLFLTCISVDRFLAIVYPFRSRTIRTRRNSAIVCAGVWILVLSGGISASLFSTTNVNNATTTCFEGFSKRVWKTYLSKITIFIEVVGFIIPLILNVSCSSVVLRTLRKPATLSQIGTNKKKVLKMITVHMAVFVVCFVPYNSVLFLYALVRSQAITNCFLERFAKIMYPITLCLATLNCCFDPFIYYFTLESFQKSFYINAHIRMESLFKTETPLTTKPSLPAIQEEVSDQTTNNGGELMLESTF", "assay": "Intracellular free Ca2+ (Fura-2AM) in LPA4-expressing B103 cells", "assay_type": "cell-based", "set-up": "host or cells: B103 rat neuroblastoma cells", "settings": "gintonin", "text": "LPA family receptors are endogenous to cells of most organs. B103 rat neuroblastoma cells, known as LPA receptor-null cells (Valentine et al., Biochim Biophys Acta 1780. 597-605) were transiently transfected with a plasmid (vector) carrying one of genes coding for LPA1(edg-2), LPA2(edg-4), LPA3(edg-7), LPA4, LPA5 and LPA6 receptors or a plasmid carrying none of them (empty vector). Two or three days after transfection, the cells are suspended, and made permeable. Then, the permeable cells are treated with Fura-2AM, a fluorescent dye binding to calcium, and then with gintonin, followed by spectrofluorephotometry to examine whether gintonin induces an increase in intracellular free Ca^2+ level. […]"}}, "data": [{"molecule": "B1", "values": [{"measurement": "gintonin-induced NMDA receptor activation", "setting": "[1]", "value": "maintained gintonin-induced NMDA receptor activation"}, {"measurement": "covering of scratch wound area", "setting": "HUVECs", "value": "covered the wound area"}, {"measurement": "CaCC activation", "setting": "endogenous CaCC", "value": "activate endogenous Ca^2+-activated channel (CaCC)"}, {"measurement": "increase in intracellular calcium level", "setting": "LPA4 receptor", "value": "61.6 ± 11.8", "unit": "µM"}]}]}
